From patent publication US20060259987A1 (UNIVERSITY OF UTAH RESEARCH FOUNDATION, published 2006)
Residue numbers refer to the chain shown, from its start. Names may count otherwise.

T1: human neutrophil elastase (human, UniProt P08246 30-247, limits assumed)
T1 sequence (looked up): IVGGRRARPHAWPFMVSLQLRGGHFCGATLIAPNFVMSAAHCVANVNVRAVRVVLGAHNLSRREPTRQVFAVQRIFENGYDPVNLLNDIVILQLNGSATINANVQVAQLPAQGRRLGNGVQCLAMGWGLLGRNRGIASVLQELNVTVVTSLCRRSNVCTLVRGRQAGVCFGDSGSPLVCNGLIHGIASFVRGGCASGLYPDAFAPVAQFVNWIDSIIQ

T2: human neutrophil cathepsin G (human, UniProt P08311 21-244)
T2 sequence (looked up): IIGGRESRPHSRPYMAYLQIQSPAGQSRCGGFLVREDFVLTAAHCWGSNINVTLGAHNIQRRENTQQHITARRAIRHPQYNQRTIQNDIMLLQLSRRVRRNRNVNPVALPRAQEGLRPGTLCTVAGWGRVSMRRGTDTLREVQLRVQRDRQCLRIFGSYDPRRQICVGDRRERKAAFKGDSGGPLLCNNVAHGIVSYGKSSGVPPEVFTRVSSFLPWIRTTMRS

B1: 13C.432 (other)
chain: SPVDICTAKPRDIPMNPMCIYRSPEKKATEDEGSEQKIPEATNRRVWELSKANSRFATTFYQHLADSKNDNDNIFLSPLSISTAFAMTKLGACNDTLQQLMEVFKFDTISEKTSDQIHFFFAKLNCRLYRKANKASKLVSANRLFGDKSLTFNETYQDISELVYGAKLQPLDFKENAEQSRAAINKWVSNKTEGRITDVIPSEAINELTVLVLVNTIYFKGLWKSKFSPENTRKELFYKADGESCSASMMYQEGKFRYRRVAEGTQVLELPFKGDDITMVLILPKPEKSLAKVEKELTPEVLQEWLDELEEMMLVVHMPRFRIEDGFSLKEQLQDMGLVDLFSPEKSKLPGIVAEGRDDLYVSDAFHKAFLEVNEEGSEAAASTELEIAGRSLNPNRVTFKANRPFLVFIREVPLNTIIFMGRVANPCVK
notes: Made in Drosophila S2 cells (DES) on the S137A background; N-terminus printed as SPVDI---
B2: 13C.435 (other)
chain: B1 chain with I388W
notes: as for B1
B3: 13C.433 (other)
chain: B1 chain with I388L
notes: as for B1
B4: 13C.431 (other)
chain: B1 chain with I388A
notes: Made in Drosophila S2 cells (DES) on the S137A background; N-terminus printed as SPVDI---; primer codon CTC gives L
B5: 13C.434 (other)
chain: B1 chain with I388F
notes: as for B1
B6: 13C.444 (other)
chain: B1 chain with I388V, G390P
modifications: N-linked glycans added by Drosophila S2 cells; not carried by the letters
notes: as for B1
B7: LEAQ.502 (other)
chain: B1 chain with E385A, E387S, I388A, A389Q
notes: also called DES.LEAQ.502
B8: LEAQ.517 (other)
chain: B1 chain with E385S, I388A, A389Q
B9: LEAQ.518 (other)
chain: B1 chain with E385T, I388A, A389Q
B10: 13C.511 (other)
chain: B1 chain with E385A
B11: LEAQ.508 (other)
chain: B1 chain with E385A, E387K, I388A, A389Q
notes: also called DES.LEAQ.508
B12: LEAQ.506 (other)
chain: B1 chain with E385A, E387H, I388A, A389Q
notes: also called DES.LEAQ.506
B13: LEAQ.504 (other)
chain: B1 chain with E385A, E387N, I388A, A389Q
notes: also called DES.LEAQ.504
B14: LEAQ.503 (other)
chain: B1 chain with E385A, E387T, I388A, A389Q
notes: also called DES.LEAQ.503

biological target: T3, thrombin (human, UniProt P00734 328-622); assay: cell-based or functional assay

Row | rsd. IIa catG; CA expt #7; stg1 conc 200 | rsd. IIa catG; CA expt #8; stg1 conc 200 | rsd. IIa hne; CA expt #7; stg1 conc 200 | rsd. IIa hne; CA expt #8; stg1 conc 200 | rsd. IIa no add; CA expt #7; stg1 conc 200 | rsd. IIa no add; CA expt #8; stg1 conc 200 | Binder
1 | 5 % of activity without ATIII | 8 % of activity without ATIII | 3 % of activity without ATIII | 16 % of activity without ATIII | 5 % of activity without ATIII | 5 % of activity without ATIII | B1
2 | 5 % of activity without ATIII | – | 4 % of activity without ATIII | – | 5 % of activity without ATIII | – | B2
3 | 5 % of activity without ATIII | 18 % of activity without ATIII | 4 % of activity without ATIII | 20 % of activity without ATIII | 5 % of activity without ATIII | 13 % of activity without ATIII | B3
4 | 5 % of activity without ATIII | 19 % of activity without ATIII | 4 % of activity without ATIII | 25 % of activity without ATIII | 5 % of activity without ATIII | 14 % of activity without ATIII | B4
5 | 5 % of activity without ATIII | 30 % of activity without ATIII | 4 % of activity without ATIII | 12 % of activity without ATIII | 5 % of activity without ATIII | 8 % of activity without ATIII | B5
6 | 5 % of activity without ATIII | – | 14 % of activity without ATIII | – | 6 % of activity without ATIII | – | B6

biological target: T4, factor Xa (human, UniProt P00742 41-179; P00742 235-488, limits assumed); assay: cell-based or functional assay
T4 sequence (P00742 41-179 limits assumed, form in doubt, chain 1 of 2): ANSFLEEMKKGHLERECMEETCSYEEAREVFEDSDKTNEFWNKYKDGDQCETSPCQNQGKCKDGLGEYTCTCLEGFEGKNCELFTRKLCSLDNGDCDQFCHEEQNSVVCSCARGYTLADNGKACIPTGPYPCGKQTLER
T4 sequence (P00742 235-488 limits assumed, form in doubt, chain 2 of 2): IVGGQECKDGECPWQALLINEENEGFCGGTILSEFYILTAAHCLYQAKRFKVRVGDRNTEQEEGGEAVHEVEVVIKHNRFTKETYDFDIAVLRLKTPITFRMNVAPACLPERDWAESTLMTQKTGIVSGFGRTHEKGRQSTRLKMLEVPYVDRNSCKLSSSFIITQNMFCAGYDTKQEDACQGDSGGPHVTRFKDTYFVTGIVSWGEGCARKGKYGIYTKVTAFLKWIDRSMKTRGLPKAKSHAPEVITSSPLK

Row | rsd. Xa catG; CA expt #7; stg1 conc 200 | rsd. Xa catG; CA expt #8; stg1 conc 200 | rsd. Xa hne; CA expt #7; stg1 conc 200 | rsd. Xa hne; CA expt #8; stg1 conc 200 | rsd. Xa no add; CA expt #7; stg1 conc 200 | rsd. Xa no add; CA expt #8; stg1 conc 200 | Binder
7 | 3 % of activity without ATIII | 1 % of activity without ATIII | 2 % of activity without ATIII | 1 % of activity without ATIII | 4 % of activity without ATIII | 1 % of activity without ATIII | B1
8 | 3 % of activity without ATIII | – | 3 % of activity without ATIII | – | 3 % of activity without ATIII | – | B2
9 | 2 % of activity without ATIII | 1 % of activity without ATIII | 3 % of activity without ATIII | 1 % of activity without ATIII | 4 % of activity without ATIII | 1 % of activity without ATIII | B3
10 | 3 % of activity without ATIII | 1 % of activity without ATIII | 3 % of activity without ATIII | 2 % of activity without ATIII | 3 % of activity without ATIII | 2 % of activity without ATIII | B4
11 | 2 % of activity without ATIII | 1 % of activity without ATIII | 3 % of activity without ATIII | 1 % of activity without ATIII | 4 % of activity without ATIII | 2 % of activity without ATIII | B5
12 | 3 % of activity without ATIII | – | 3 % of activity without ATIII | – | 3 % of activity without ATIII | – | B6

biological target: T5, human thrombin (human, UniProt P00734 328-622); assay: cell-based or functional assay

Row | IC50 IIa/UFH (HCA #5) [nM] | IC50 IIa/UFH (HCA #6) [nM] | rsd IIa, no add (CA #51, stg 1 conc 200) [%] | rsd IIa, no add (CA #52, stg 1 conc 200) [%] | Binder
13 | 16 | 18 | 1 | – | B7
14 | – | 65 | – | 4 | B8
15 | – | 50 | – | 4 | B9
16 | 150 | 130 | 2 | 5 | B10
17 | 18 | – | 1 | – | B11
18 | 9 | – | – | – | B12
19 | 17 | – | 1 | – | B13
20 | 13 | – | 0 | – | B14

biological target: human factor Xa (human, UniProt P00742 41-179; P00742 235-488, limits assumed); assay: cell-based or functional assay
Sequence (P00742 41-179 limits assumed, chain 1 of 2): as the sequence (P00742 41-179 limits assumed, form in doubt, chain 1 of 2) above
Sequence (P00742 235-488 limits assumed, chain 2 of 2): as the sequence (P00742 235-488 limits assumed, form in doubt, chain 2 of 2) above

Row | IC50 fXa/UFH (HCA #5) [nM] | IC50 fXa/UFH (HCA #6) [nM] | rsd Xa, no add (CA #51, stg 1 conc 200) [%] | rsd Xa, no add (CA #52, stg 1 conc 200) [%] | Binder
21 | 12 | 19 | 1 | – | B7
22 | – | 27 | – | 2 | B8
23 | – | 27 | – | 3 | B9
24 | 30 | 40 | -1 | 2 | B10
25 | 19 | – | -1 | – | B11
26 | 13 | – | – | – | B12
27 | 14 | – | 0 | – | B13
28 | 11 | – | 1 | – | B14

biological target: T1, human neutrophil elastase; assay: cell-based or functional assay

Row | rsd IIa, HNE (CA #51, stg 1 conc 200) [%] | rsd Xa, HNE (CA #51, stg 1 conc 200) [%] | rsd IIa, HNE (CA #52, stg 1 conc 200) [%] | rsd Xa, HNE (CA #52, stg 1 conc 200) [%] | Binder
29 | 1 | 1 | – | – | B7
30 | – | – | 3 | 2 | B8
31 | – | – | 3 | 2 | B9
32 | 54 | -3 | 84 | 92 | B10
33 | 1 | -3 | – | – | B11
34 | 1 | 1 | – | – | B13
35 | 1 | 0 | – | – | B14

biological target: T2, human neutrophil cathepsin G; assay: cell-based or functional assay

Row | rsd IIa, catG (CA #51, stg 1 conc 200) [%] | rsd Xa, catG (CA #51, stg 1 conc 200) [%] | rsd IIa, catG (CA #52, stg 1 conc 200) [%] | rsd Xa, catG (CA #52, stg 1 conc 200) [%] | Binder
36 | 2 | -1 | – | – | B7
37 | – | – | 2 | 1 | B8
38 | – | – | 2 | 1 | B9
39 | 1 | -2 | 5 | 1 | B10
40 | 1 | -2 | – | – | B11
41 | 1 | -1 | – | – | B13
42 | 1 | -2 | – | – | B14

biological target: T5, human thrombin; assay: thrombin inhibition rate in the absence of heparin

Row | Kapp, thrombin progressive [M⁻¹ s⁻¹] | Binder
43 | 3000 | B7
44 | 4100 | B11
45 | 4100 | B12
46 | 3300 | B13
47 | 3700 | B14

biological target: T5, human thrombin; assay: thrombin inhibition rate in the presence of heparin (HAH)

Row | Kapp, thrombin HAH [M⁻¹ s⁻¹] | Binder
48 | 1.1e+07 | B7
49 | 1.1e+07 | B11
50 | 1.1e+07 | B12
51 | 6.1e+06 | B13
52 | 1.6e+07 | B14

biological target: T4, factor Xa; assay: heparin cofactor assay, HCA expt #2; ATIII titrated on 10 nM fXa + 50 ug/ml UFH, chromogenic readout
Procedure: (§1) After 3 minutes, the reactions were quenched with polybrene and chromogenic substrate S2238 (thrombin) or S2765 (fXa), and the initial rate of chromophore production (405 nm) recorded to obtain a measurement residual, uninhibited thrombin or factor Xa. IC50s were determined from plots of ATIII concentration vs. percent residual target enzyme activity.

Row | IC50 [nM] | Binder
53 | 45 | B1
54 | 34 | B2
55 | 30 | B3
56 | 45 | B4
57 | 17 | B5
58 | 40 | B6

biological target: T3, thrombin; assay: heparin cofactor assay, HCA expt #2; ATIII titrated on 10 nM thrombin + 50 ug/ml UFH, chromogenic readout
Procedure: as §1

Row | IC50 [nM] | Binder
59 | 460 | B1
60 | 700 | B2
61 | 600 | B3
62 | 550 | B4
63 | 500 | B5
64 | > 1000 | B6
